The values below come from patent US20230167177A1 (WUXI BIOLOGICS IRELAND, published 2023).

The EC50 is the midpoint of the concentration-response curve. The term IC50 denotes the midpoint of a concentration-inhibition curve. A high value points to weaker potency in that assay. Broadly, the Kd is the equilibrium constant for the complex coming apart. The low end stands for tighter binding, the high end for weaker binding. A word on the koff: it is the rate constant with which the complex falls apart. A word on the kon: it is a measure of how fast the partners come together. Higher therefore signals fast association.

Residue numbers refer to the chain shown, from its start.

For assay [1], the target named is T1, human CTLA-4 on transfected cells (human, UniProt P16410 36-223).
T1 construct: whole, on cells; also called cell surface human CTLA-4; hCTLA4 transfected cells
The assay can be described thus: FACS on human CTLA-4 expressing cells. How it is done: (§1) For FACS binding, engineered human CTLA-4 expressing cells were seeded at 1×10⁵ cells/well in U-bottom 96-well plates (COSTAR 3799). After centrifugation at 1500 rpm for 4 minutes at 4° C., the supernatants were moved and the serial dilutions of antibodies in 1% BSA-DPBS were added to the cells. The plates were incubated at 4° C. for 1 hour. […] The binding of the antibodies to the cells was tested by flow cytometry and the mean fluorescence intensity (MFI) was analyzed by FlowJo.

In assay [2] the target is T2, cynomolgus CTLA-4 ECD protein (in house) (Macaca fascicularis (cynomolgus monkey), UniProt G7PL88 36-161).
T2 construct: also called immobilized cyno CTLA-4 ECD protein; cyno CTLA4 ECD protein; not shown: C-terminal tag: 6xHis or Fc
In words: ELISA, cyno CTLA4 ECD coated at 1.0 µg/ml. How it is done:
(§2) After blocking with 2% BSA-PBS, serial diluted antibodies were added into each well and incubated for 1 hour at room temperature. HRP-labeled goat anti-human IgG (Bethyl A80-304P) were used as the secondary antibody and incubated for 1 hour. The color was developed by TMB substrate, and then stopped by 2N HCl. The absorbance was read at 450 nm using a Microplate Spectrophotometer (SpectraMax® M5e).
(§3) The binding of testing antibodies to […] was assessed by ELISA and FACS as the described above. […] For FACS binding, engineered Cynomolgus CTLA4 expressing cell pool was used.
Background: An ELISA detects its analyte on a solid surface through an enzyme-linked reagent.

The target in assay [3] is T3, human CTLA-4 ECD protein (in house) (human, UniProt P16410 36-161).
T3 construct: extracellular domain; also called immobilized human CTLA-4 ECD protein; hCTLA-4; not shown: 6xHis or Fc tag
The assay can be described thus: ELISA, human CTLA4 ECD coated at 1.0 µg/ml. On the procedure:
as §2

Assay [4] deals with T4, cynomolgus CTLA-4 on transfected cells (Macaca fascicularis (cynomolgus monkey), UniProt G7PL88 36-223).
T4 construct: also called cell surface cyno CTLA-4; Cynomolgus CTLA4 expressing cell pool
The assay can be described thus: FACS on cynomolgus CTLA4 expressing cell pool. How it is done: as §1, §3

The target of assay [5] is T3, human CTLA-4 ECD protein (in house). The assay can be described thus: competition ELISA, hCTLA4 ECD coated; competitor his-tagged hCD80. How it is done:
(§4) After washing with PBST, biotin-labeled anti-His mAb (GenScript-A00613) was added and incubation 1 hour. […] The color reaction was developed by TMB substrate, and then stopped by 2N HCl. The absorbance was read at 450 nm using a Microplate Spectrophotometer (SpectraMax® M5e).

Assay [6] has the same target. In words: competition ELISA, hCTLA4 ECD coated; competitor his-tagged hCD86. On the procedure:
as §4

The next assay concerns the target T5, hBTLA.His (human, UniProt Q7Z6A9 31-157, limits assumed).
T5 construct: not shown: His tag
The assay can be described thus: ELISA on coated BTLA.His, detected with HRP goat anti-human IgG. On the procedure:
(§5) After blocking with 2% BSA-PBS, 10 μg/ml and 1.0 μg/ml of testing antibodies were respectively added into the plates and incubated for 1 hour at room temperature. The secondary antibody HRP-labeled goat anti-human IgG (Bethyl A80-304P) was then added and incubated for 1 hour. Washes with PBST were performed between each step. The color reaction was developed by TMB substrate, and then stopped by 2N HCl. The absorbance was read at 450 nm using a Microplate Spectrophotometer (SpectraMax® M5e).

In the next assay the target is T6, hICOS.mFC (human, UniProt Q9Y6W8 21-140).
T6 construct: not shown: mFc tag
T6 sequence (looked up): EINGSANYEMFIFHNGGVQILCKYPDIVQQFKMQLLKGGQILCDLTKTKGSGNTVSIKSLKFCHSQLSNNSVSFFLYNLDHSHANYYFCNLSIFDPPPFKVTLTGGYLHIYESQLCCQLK
The assay can be described thus: ELISA on coated hICOS.mFc, detected with HRP goat anti-human IgG. How it is done: as §5

The target of assay [7] is T3, human CTLA-4 ECD protein (in house). In words: competition FACS, biotinylated hCTLA4 ECD; competitor hCD80 on transfected cells. On the procedure: (§6) After washing, streptavidin PE (BD Pharmingen-554061) was added to the cells and incubated at 4° C. for 1 hour. The fluorescence values were measured by flow cytometry and analyzed by FlowJo.
The target is the same in assay [8]. The assay can be described thus: competition FACS, biotinylated hCTLA4 ECD; competitor hCD86 on transfected cells. How it is done:
as §6

Assay [9] has as its target T1, human CTLA-4 on transfected cells. The assay can be described thus: FACS on CTLA-4 transfected cells; antibody incubated in human serum at 37 C for 1 day. How it is done: (§7) Testing antibodies were incubated in freshly isolated human serum (serum content >90%) at 37° C. On indicated time points, an aliquot of serum treated sample was removed from the incubator and snap frozen in liquid nitrogen, and then stored at −80° C. until test. The samples were quickly thawed immediately prior to the stability test. Serial dilutions of antibodies were incubated with CTLA-4 transfected cells for 1 hour at 4° C. After washing, FITC conjugated goat anti-human IgG antibody (Jackson ImmunoResearch) was added to the cells and incubated at 4° C. for 1 hour. Finally, the cells were washed and resuspended in 1% BSA-PBS. The MFI fluorescence values were measured by flow cytometry and analyzed by FlowJo.

For assay [10] the target is unchanged. The assay can be described thus: FACS on CTLA-4 transfected cells; antibody incubated in human serum at 37 C for 0 days. On the procedure: as §7
The target is the same in assay [11]. The assay can be described thus: FACS on CTLA-4 transfected cells; antibody incubated in human serum at 37 C for 4 days. On the procedure: as §7
Assay [12] shares this target. The assay can be described thus: FACS on CTLA-4 transfected cells; antibody incubated in human serum at 37 C for 7 days. On the procedure: as §7
Assay [13] has the same target. In words: FACS on CTLA-4 transfected cells; antibody incubated in human serum at 37 C for 14 days. On the procedure: as §7
The next assay concerns the target T7, hPD-1.mFc (human, UniProt Q15116 25-170).
T7 construct: not shown: mFc tag
The assay can be described thus: ELISA on coated hPD1 (sheet prints 'hPD1.His', text says hPD-1.mFc), detected with HRP goat anti-human IgG. On the procedure:
as §5

The target in a further assay is T8, hCD28.mFc (human, UniProt P10747 19-152).
T8 construct: not shown: mFc tag
The assay can be described thus: ELISA on coated hCD28 (sheet prints 'hCD28.His', text says hCD28.mFc), detected with HRP goat anti-human IgG. How it is done: as §5

Assay [14] has as its target T3, human CTLA-4 ECD protein (in house). The assay can be described thus: competition (epitope binning) ELISA on coated human CTLA4 protein; competitor 0.02 ug/ml W316-BMK1-Biotin, detected with streptavidin-HRP. How it is done: After washing, HRP-conjugated streptavidin were added and incubated for 1 hour. The color was developed by dispensing TMB substrate, and then stopped by 2N HCl. The absorbance was read at 450 nm using a Microplate Spectrophotometer (SpectraMax® M5e).

The target of assay [15] is T1, human CTLA-4 on transfected cells. The assay can be described thus: cell-based or functional assay.
Assay [16] concerns the target T4, cynomolgus CTLA-4 on transfected cells. The assay can be described thus: FACS affinity on cyno CTLA-4 transfected cells (cPro1), quantitative beads. How it is done: (§8) Human CTLA-4 or cyno CTLA-4 transfected cells were plated into 96-well U-bottom plates (BD) at a density of 5×10⁴ cells/well. Testing antibodies were 1:2-fold serially diluted in 1% BSA-PBS and incubated with the cells at 4° C. for 1 hr. After centrifugation at 1500 rpm for 4 min, the supernatant was discarded. The secondary antibody FITC conjugated goat anti-human IgG Fc (Jackson Immunoresearch Lab) was added and incubated at 4° C. in the dark for 30 min. The cells were then washed once and re-suspended in 1% BSA-PBS for the analysis by flow cytometry (BD CantoII). Fluorescence intensity was converted to bound molecules/cell based on the quantitative beads (Quantum™ MESF Kits, Bangs Laboratories). KD was calculated using Graphpad Prism5.

Assay [17] deals with T1, human CTLA-4 on transfected cells. The assay can be described thus: FACS affinity on human CTLA-4 transfected cells (hPro1), quantitative beads. On the procedure:
as §8

Assay [18] deals with T9, human CTLA-4 ECD, His-tagged (human, UniProt P16410 36-161).
T9 construct: extracellular domain; also called W316.hprol.ECD.his; hCTLA-4.His; not shown: hexa-histidine (6xHis) tag
In words: SPR (Biacore T200), antibody captured by anti-human IgG Fc, CTLA-4 ECD his as analyte. How it is done:
The experiment was to measure the on-rate constant (ka) and off-rate constant (kd) of the antibodies to CTLA-4 ECD based on SPR technology. The affinity constant (KD) is thus consequently determined. Biacore T200, Series S Sensor Chip CM5, Amine Coupling Kit, and 10XHBS-EP were from GE Healthcare. […] In immobilization step, the activation buffer was prepared by mixing 400 mM EDC and 100 mM NHS immediately prior to injection. The CM5 sensor chip was activated for 420 s with the activation buffer. 30 μg/mL of goat anti-human IgG Fc antibody in 10 mM NaAc (pH 4.5) was then injected to Fc1-Fc4 channels for 200 s at a flow rate of 5 μL/min. The chip was deactivated by 1 M ethanolamine-HCl (GE). Then the antibodies were captured on the chip. Briefly, 4 μg/mL antibodies in running buffer (HBS-EP+) was injected individually to Fc3 channel for 30 s at a flow rate of 10 μL/min. […] Regeneration buffer (10 mM Glycine pH 1.5) was injected at 10 μL/min for 30 s following every dissociation phase.
Background: In SPR one partner is held on a chip, and binding of the other changes the refractive index at the surface.

T4 sequence (G7PL88 entry or part of it limits assumed): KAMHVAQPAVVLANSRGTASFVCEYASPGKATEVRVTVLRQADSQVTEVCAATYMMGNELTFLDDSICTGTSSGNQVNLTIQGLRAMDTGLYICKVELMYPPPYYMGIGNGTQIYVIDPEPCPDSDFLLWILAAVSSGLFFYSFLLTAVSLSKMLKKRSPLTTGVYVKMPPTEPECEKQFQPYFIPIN
T1 sequence (P16410 36-223): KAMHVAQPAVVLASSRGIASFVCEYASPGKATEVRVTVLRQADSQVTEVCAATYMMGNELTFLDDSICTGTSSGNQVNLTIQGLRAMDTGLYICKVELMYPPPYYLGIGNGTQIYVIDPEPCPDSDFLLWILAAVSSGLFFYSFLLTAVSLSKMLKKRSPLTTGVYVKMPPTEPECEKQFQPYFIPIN
T3 sequence (P16410 36-161): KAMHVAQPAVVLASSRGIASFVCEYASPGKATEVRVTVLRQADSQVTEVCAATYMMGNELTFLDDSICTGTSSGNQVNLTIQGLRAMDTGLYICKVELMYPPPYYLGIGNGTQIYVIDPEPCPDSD
T9 sequence (P16410 36-161): as above
T7 sequence (Q15116 25-170): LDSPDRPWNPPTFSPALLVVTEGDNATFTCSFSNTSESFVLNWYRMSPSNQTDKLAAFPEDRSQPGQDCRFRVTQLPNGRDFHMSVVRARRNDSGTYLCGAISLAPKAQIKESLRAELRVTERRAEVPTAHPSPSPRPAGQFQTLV
T2 sequence (G7PL88 entry or part of it limits assumed): as the sequence (P16410 36-161) above, with S14N, I18T, L106M counted along it

B1: W3166-z13 (Fc fusion)
chain: QVQLVESGGGLVQPGGSLRLSCAASGRTFSSYAMGWFRQAPGMEREFVASIRWSDQTTYVPNSVKGRFTISRDNSKNTLYLQMNSLRPEDTAVYYCATGPTRLSFYSGNYRTYDSWGQGTLVTVSS
notes: Tested as VHH linked to human IgG1 Fc; also called humanized VHH antibody W3166-z13; W3166-z13 VHH fused with Fc of human IgG1; not shown: human IgG1 Fc region
As to B1, the concentration for a half-maximal effect (EC50) worked out at 0.325 nM in [1]; 0.0732 nM in [2]; 0.0983 nM in [3]; 1.5 nM in assay [4]; 0.221 nM in assay [9]; 0.214 nM in [10]. Moreover, the EC50 in [11] stood at 0.237 nM; in assay [12] it was 0.223 nM; in assay [13] it was 0.244 nM. Besides, the IC50 was 1.1 nM in assay [5], 2.06 nM in assay [6], 0.109 nM in [7] and 0.22 nM in assay [8]. Also, the binding result with hBTLA.His, with hICOS.mFC, with hPD-1.mFc and in the assay with hCD28.mFc was “no binding (tested: 10 ug/ml)” throughout. Moreover, in assay [14], the “IC50 (read off the curve)” value was approximately 3 nM.

B2: W3166-z17 (Fc fusion)
chain: B1 chain with L11V, M43K
notes: Tested as VHH linked to human IgG1 Fc; also called humanized VHH antibody W3166-z17; W3166-z17 VHH fused with Fc of human IgG1; not shown: human IgG1 Fc region
As to B2, in assay [15], the “EC50 in inducing ADCC effect” value came to 0.247 nM. For the same molecule, the concentration giving a half-maximal response (EC50) in [1] was determined as 0.297 nM; in [2], 0.0401 nM; in assay [3], 0.0512 nM; in [4] it was 1.16 nM; in assay [9], 0.195 nM; in [10], 0.19 nM. In addition, the 50% effective concentration (EC50) in assay [11] came out at 0.193 nM; in [12], 0.221 nM; in assay [13], 0.199 nM. Besides, the half-maximal inhibitory concentration (IC50) amounted to 0.908 nM in [5], 1.67 nM in assay [6], 0.0786 nM in assay [7] and 0.163 nM in assay [8]. Also, the binding result with hBTLA.His, with hICOS.mFC, with hPD-1.mFc and with hCD28.mFc was “no binding (tested: 10 ug/ml)” throughout. Also, the Kd was determined as 0.14 nM in [16], 0.049 nM in assay [17] and 3.13 nM in [18]. The dissociation rate constant (koff) in assay [18] is 0.0015 s⁻¹. Further, the kon in assay [18] stood at 481000 M⁻¹ s⁻¹. Besides, the “IC50 (read off the curve)” value in assay [14] is approximately 3 nM.
